# Experimental data from patent publication US7605127.
# How the values were obtained:
# [1] = biological target: c-met protooncogene product (HGF receptor) on B5/589 human mammary epithelial cells (human) (UniProt P08581); test: cell-based or functional assay
# [2] = biological target: c-met protooncogene product (HGF receptor) on B5/589 human mammary epithelial cells (human) (UniProt P08581); test: competition of 125I-HGF/NK1 cross-linking to B5/589 cells by excess unlabeled HGF/NK1 or HGF/SF
substance,measurement,setting,value
"HGF/NK1 (truncated HGF variant; N-terminal domain and first kringle domain), eukaryotically expressed from the pH46 (2.2 kb) coding region (from UniProt P14210 32-210) (ligand)","[3H]-thymidine incorporation in B5/589 cells, percent of the maximal DNA synthesis elicited by HGF/SF (% of maximal HGF/SF response at 8 nM)",[1],20
same,inhibition of HGF/SF mitogenic activity in the B5/589 bioassay: molar excess for ~50% reduction (fold molar excess over HGF/SF),[1],20
same,affinity for Met relative to full-length HGF/SF (fold of HGF/SF affinity),[2],0.25
